The text below walks through data of publication PMC4794788, “Cell‐free synthesis of isotopically labelled peptide ligands for the functional characterization of G protein‐coupled receptors” (FEBS Open Bio, 2015).

Test [1] addresses T1, human complement 5a receptor (C5aR) (Homo sapiens, UniProt P21730).
T1 construct: 10x His (N); FLAG (N); StrepII (C); made in house; host or cells: Sf9 insect cells (recombinant baculovirus, pOET5 / flashBAC); membrane preparation
T1 sequence (P21730 1-350): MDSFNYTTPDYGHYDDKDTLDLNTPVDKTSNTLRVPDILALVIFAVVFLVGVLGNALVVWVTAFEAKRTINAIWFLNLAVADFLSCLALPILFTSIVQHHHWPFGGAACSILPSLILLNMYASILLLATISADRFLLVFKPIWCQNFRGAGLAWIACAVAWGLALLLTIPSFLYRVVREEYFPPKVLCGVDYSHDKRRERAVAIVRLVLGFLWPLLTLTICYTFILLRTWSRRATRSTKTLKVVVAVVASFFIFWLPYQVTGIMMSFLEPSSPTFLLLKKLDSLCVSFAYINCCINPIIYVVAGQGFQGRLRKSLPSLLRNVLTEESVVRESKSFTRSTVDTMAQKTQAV
The test is described as follows: Saturation radioligand binding of [^3H]‐C5a^CF to C5aR in Sf9 membranes. As to conditions: radioligand 31 pM‐8 nM; human C5aR coproduced with Gαi2, Sf9 membranes (10–50 μg total protein); 120 min, room temperature; 50 mM Hepes‐NaOH pH 7.4, 5 mM MgCl2, 1 mM CaCl2, 0.5% BSA, 75 mM NaCl; nonspecific: 50 μM H2N‐ChaW; filtration, scintillation counting; means ± SEM from three or two independent experiments in triplicate; read-out: KD (dissociation constant). From the text: The complement 5a receptor was coproduced with Gαi2 in Sf9 insect cells. The cDNA encoding the human complement 5a receptor flanked by an N‐terminal 10x His and FLAG tag and a C‐terminal StrepII tag was cloned into the pOET5 transfer vector (Oxford Expression Technologies, Oxford, UK). pOET5 contains two expression cassettes, the receptor is expressed under the control of a polyhedron promoter; Gαi2 expression is regulated by a p10 promoter. Recombinant baculoviruses were generated with the flashBAC protein expression system (Oxford Expression Technologies) according to manufacturer's instructions. […] Total membrane protein content was determined by the bicinchoninic acid (BCA) method using bovine serum albumin as the standard.
For the determination of binding parameters, membranes containing the respective receptors (10–50 μg total membrane protein) were incubated with cell‐free synthesized tritium‐labelled ligands in varying concentrations. Binding was terminated by rapid filtration over glass fibre filters pretreated with 0.3% polyethyleneimine using a Brandel harvester (Brandel, Alpha Biotech Ltd, Killearn, UK) and analysed by liquid scintillation counting. […]
Data are represented as means ± SEM from three or two independent experiments performed in triplicate and analysed in […] […]

Another test deals with C5aR. The conditions noted are these: C5aR in native human tissues; literature comparison; cited from earlier work. As to the method:
Table 1 Binding parameters of cell‐free synthesized radioligands | column: Literature KD [nM] || As the interaction between C5a and its receptor is mainly mediated by the disulphide bridged core region of C5a (residues 21–55, 22) and the C‐terminal region (especially Arg^74 30) the N‐terminal hexa‐histidine tag was not removed. The cell‐free synthesized ligand binds to the complement 5a receptor with a dissociation constant of 1.18 ± 0.27 nM (Fig. 4A), which corresponds to values determined by Gerard and Gerard for C5aR in native human tissues (1 nM 31, Table 1). Competition experiments with the unlabelled small molecule inverse agonist NDT 9513727 and the peptide antagonist H2N‐ChaW resu ...

B1: [^3H]‐C5a^CF: cell‐free‐synthesized tritium‐labelled complement 5a with N‐terminal hexa‐histidine tag; contains three proline residues (protein, UniProt P01031 678-751, looked up)
C5a anaphylatoxin: TLQKKIEEIAAKYKHSVVKKCCYDGACVNNDETCEQRAARISLGPRCIKAFTECCVVASQLRANISHKDMQLGR
modifications: C5a anaphylatoxin tritium label
In the case of B1, the Kd (in general, the free concentration of one partner at which half of the binding sites on the other are occupied at equilibrium, for simple one-to-one binding) in test [1] is 1.18 ± 0.27 nM; at C5aR, 1 nM.
